Assay results reported in PMC5678579, “Clusterin protects neurons against intracellular proteotoxicity” (Acta Neuropathologica Communications, 2017).

Target: full length human TDP-43-turboGFP, in vitro translated (human, UniProt Q13148 1-414)
Assay: cell-based or functional assay

full length human TDP-43-turboGFP, in vitro translated, sequence (Q13148 whole entry): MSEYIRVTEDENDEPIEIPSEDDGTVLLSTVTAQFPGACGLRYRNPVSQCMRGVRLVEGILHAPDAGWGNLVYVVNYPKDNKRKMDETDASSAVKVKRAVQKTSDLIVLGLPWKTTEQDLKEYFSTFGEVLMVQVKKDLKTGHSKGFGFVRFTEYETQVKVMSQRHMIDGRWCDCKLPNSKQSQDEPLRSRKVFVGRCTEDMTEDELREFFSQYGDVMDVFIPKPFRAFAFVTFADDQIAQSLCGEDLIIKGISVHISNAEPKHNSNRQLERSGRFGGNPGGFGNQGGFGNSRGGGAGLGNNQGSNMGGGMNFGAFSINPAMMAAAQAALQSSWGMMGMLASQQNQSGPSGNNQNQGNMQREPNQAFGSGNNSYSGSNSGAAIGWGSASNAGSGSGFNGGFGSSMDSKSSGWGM

B1: clusterin (CLU) purified from human plasma (natural protein)
chain 1: DQTVSDNELQEMSNQGSKYVNKEIQNAVNGVKQIKTLIEKTNEERKTLLSNLEEAKKKKEDALNETRESETKLKELPGVCNETMMALWEECKPCLKQTCMKFYARVCRSGSGLVGRQLEEFLNQSSPFYFWMNGDRIDSLLENDRQQTHMLDVMQDHFSRASSIIDELFQDRFFTREPQDTYHYLPFSLPHRRPHFFFPKSRIVR
chain 2: SLMPFSPYEPLNFHAMFQPFLEMIHEAQQAMDIHFHSPAFQHPPTEFIREGDDDRTVCREIRHNSTGCLRMKDQCDKCREILSVDCSTNNPSQAKLRRELDESLQVAERLTRKYNELLKSYQWKMLNTSSLLEQLNEQFNWVSRLANLTQGEDQYYLRVTTVASHTSDSDVPSGVTEVVVKLFDSDPITVTVPVEVSRKNPKFMETVAEKALQEYRKKHREE
  soluble TDP-43-tGFP left after 4 h at 37 °C with 43 nM CLU, against 43 nM BSA (Western blot of the supernatant, densitometry): 8 fold
